# Reference: publication PMC5344670, “Cryo-EM structure of the ATP-sensitive potassium channel illuminates mechanisms of assembly and gating” (eLife, 2017)
# B1: rat Kir6.2 (natural protein)
# chain: MLSRKGIIPEEYVLTRLAEDPTEPRYRTRERRARFVSKKGNCNVAHKNIREQGRFLQDVFTTLVDLKWPHTLLIFTMSFLCSWLLFAMVWWLIAFAHGDLAPGEGTNVPCVTSIHSFSSAFLFSIEVQVTIGFGGRMVTEECPLAILILIVQNIVGLMINAIMLGCIFMKTAQAHRRAETLIFSKHAVITLRHGRLCFMLRVGDLRKSMIISATIHMQVVRKTTSPEGEVVPLHQVDIPMENGVGGNSIFLVAPLIIYHVIDSNSPLYDLAPSDLHHHQDLEIIVILEGVVETTGITTQARTSYLADEILWGQRFVPIVAEEDGRYSVDYSKFGNTVKVPTPLCTARQLDEDRSLLDALTLASSRGPLRKRSVAVAKAKPKFSISPDSLS
# notes: Kir6.2, rat, inwardly rectifying K+ channel family; the final model holds residues 32-356; The eLife digest calls it the mouse form; results and methods say rat; source: INS-1 cells clone 832/13 (rat insulinoma), co-infected with recombinant adenoviruses; purified with f-SUR1 (digitonin, anti-FLAG M2 agarose, FLAG peptide elution, size exclusion chromatography)
# Molecular target: the molecule itself
# Test: cryo-EM structure; digitonin-solubilised KATP channel complex in the presence of 1 mM ATP and 1 µM glibenclamide; single-particle analysis with C4 symmetry imposed
protein,measurement,value
B1,stoichiometry N,4
